A short description of this data set: yeast display, Sf9 membrane polyspecificity reagent, FACS + sequencing; frameworks hold sequencing errors. Put shortly:
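A synthetic nanobody library was expressed on Saccharomyces cerevisiae BJ5465 by galactose induction for 36–48 hours. The library was stained for 1 hour at 4 °C with 10% biotinylated, detergent-solubilized Sf9 membrane reagent and enriched with streptavidin microbeads before FACS. Low and high (top ~1%) gates were set on anti-HA fluorescence for expression and streptavidin fluorescence for reagent binding, and each polyreactivity label reflects the gate of origin.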
Turning to “QVQLVESGGGLVKAGGILRLSCAASGYIFVRYAMGWYRQAPGKERELVAAISYRGGSTYADSVKGRFTISRDNAKNTVYLQMNRLKPEDTAVYYCAAQRWYVYGQKYHYGYWGQVTQVTVSS”, the “polyreactivity (PSR sort gate)” value is on record as “high polyreactivity”.

As for “QVQVLESGGGLVQAGGSLRLSCAASGRTFYWNAMGWYRQAPGKERELDAVISQSGGSTYYADSVKGRFTISRDNAKNTVYLQMNSLQPEDTAVYYCNKATRHHFYYWGQGTQVTVSS”, the “polyreactivity (PSR sort gate)” value is recorded as “high polyreactivity”.

As to “QVQLVESGGGLVQAGGSLRLSCAASGSTFYANTMGWYRTAPGKERELVAAITYGGGNTYYADSVKGRFTISRDNAKNTVYLQMNSLKPEDTAVYYCAARDYVSYYTRFDYWGQGTQVTVSS”, the “polyreactivity (PSR sort gate)” value is “high polyreactivity”.

On to “QVQLVESGGGLVQAGGSLRLSCAASGSTFGYYARGWYRQAPGKERELVAAISWSGTRTYYADSVKGRFTISRDNATNTVYLQMNSLKPEDTAVYYCAVRISRPRVYYYWGQGTQVTVSS”, for which the “polyreactivity (PSR sort gate)” value was “high polyreactivity”.

Regarding “QVQLVDSGGGLVQAGGSLRLSCSASGSILGAYAMGWYRQSPGKERELVASISWSGGSTYYADSVKGRFTISRDNAKNTVYLQMNSLKPEDTAGYYCAASGIRYWLPYDYWGQGTQVTVSS”, the “polyreactivity (PSR sort gate)” value is reported as “high polyreactivity”.

With “QVQLVESGGGLVQAGGSLRLSCAASGNTCYQYAMGWYRQAPGKERELVAAISSSGGSTYYADSVKGRFTISRDNAQNTVYLQMNSLKTEDTAVYYCATDKWYGYYYWGQGTQVTVSS”, the “polyreactivity (PSR sort gate)” value is “low polyreactivity”.

For the sequence “QVQLVESGGGLVQAGGSLRLSCAASGSTFWGYTMGWYRQAPGKERELVAAITGSGGSTNYADSVKGRFTISRDNANNTVYLQMNSLKPEDTAVYYCATQGITPSNSYDYWGQGTQVTVSS”, the “polyreactivity (PSR sort gate)” value is listed as “low polyreactivity”.

“QVQLVESGGGLVQAGGSLRLSCAASGFTLYSYAMGWYRQAPGKETELVAAITRSGGITYYADSVKGRFTISRDNAKNTVYLQMNSLKPEDTAVYYCAALYLATGVDKAFDSWGQGTQVTVSS”: the “polyreactivity (PSR sort gate)” value is given as “high polyreactivity”.

Regarding “QVQLVESGGGLVQAGGSLRLSCAASGSIFGFYAMGWYRQAPGKERELVAAITRSGDSTYADSVKGRFTISRDNAKNTVYLQMNSLKPEDTAVYYCATYWQYRYDYWGQGTQVTVSS”, the “polyreactivity (PSR sort gate)” value was “low polyreactivity”.

As to “QVQLVDSGGGLVQAGGSLRLTCDASGFIILYYAMRWYRQEPGKERELVADISRGADTKYADSVKGRFTISRDNAKNTVYLQMNSLKPEDTAVYYCATDITTFCFPYPGVELGYWGQGTQVTVSS”, the “polyreactivity (PSR sort gate)” value is reported as “low polyreactivity”.

Take “QVQLVESGGGLVQAGGSLRLSCAASGRTLGGYAMGWYRQAPGKERELVASITARGGSTYYADSVKGRFTISRDNAKNTVYLQMNSLKPEDTAVYYCATYFARGYNSWGQGTQVTVSS”: the “polyreactivity (PSR sort gate)” value is “high polyreactivity”.

Take “QVQLEESGGGLVQAGGSLRLSCAASGRTFVPYVMGWYRQAPGKEMELVATINWSGGSTYYADSVKGRFTISRDNAKNTVYLQMNSLKPEDTADYYCAARYYSDWFYYLFRYDYWGQGTQVTVSS”: the “polyreactivity (PSR sort gate)” value is “low polyreactivity”.

Regarding “QVQLVESGGGLVQAGGSLRLSCAASGRIFADNAMGWYRQAPGKERELVADITYSGGSTYYADSVKGRFTISRDSAKNTVYLQMNSLKPEDTAVYYCAKQGVDYWGQGTQVTVSS”, the “polyreactivity (PSR sort gate)” value was “low polyreactivity”.

As to “QVHLVESGGGLVQAGGSLRLSCAASGLIFYRYAMGWYRQAPGKERELVATISRGGRTYYADSVKGRFTNSRDNAKNTVYLQMNSLKPEDTAVYYCNADRQWYSIGSWEYDYWGQGTQVTVSS”, the “polyreactivity (PSR sort gate)” value was “high polyreactivity”.

Consider “QVQLVESGGGLVQAGGSLRLSCAASGRTFRGYAMGWYRQAPGKERELVAAITSGGSTNYADSVKGRFTISRDNAKNTVYLQMNSLKPEDTAVYYCNRDTSKYGLWRYIYDYWGQGTQVTVSS”, for which the “polyreactivity (PSR sort gate)” value is “low polyreactivity”.

In the case of “QVQLVESGGCLVQAGGSLRLSCAASGRTFSPNAMGWYRQAPGKERELVAAISWISGGRTYYADSVKGRFTISRDNAKNTVYLQMNSLKPEDTAVYYCAAEYYYTYGYWGQGTQVTVSS”, the “polyreactivity (PSR sort gate)” value is reported as “high polyreactivity”.

For the sequence “QVQLVESGGGLVQAGGSLRLSCAASGITFYVYAMGWYIPAPGKERELVAAINYDSGSTYYADSVKGRFTISRDNAKNTVYLQMNSLKPEDTAVYYCATDGVNPFYAYDYWGQGTQVTVSS”, the “polyreactivity (PSR sort gate)” value was “low polyreactivity”.

Regarding “QVQLVDSGGGLVQAGGSLRLSCAPYVLIFWAYAMGWYRQAPGKERELVAAISWSGARTYYADSVMGRFTISRDHAKHTVYLQMNSLKPEDTAVYYCAVGVQSSKRHDYWGQGTQVTVSS”, the “polyreactivity (PSR sort gate)” value is “high polyreactivity”.

Take “QVQLEESGGGLVQAGGSLRLSCAASGSIFLANAMGWYRQAPGKERELVATISSGGSTYYADSVKGRFTISRDNAKNTVYLQMNSLKPEDTAVYYCAKRRAYTKKLYYWGQGTQVTVSS”: the “polyreactivity (PSR sort gate)” value is on record as “high polyreactivity”.

In the case of “QVQLVESGGGLVQAGGSLRLSCAASGSILGVYAMGWYRQAPGKERELVAAISSGGRTYYADSVKGRFTISRDNAKNTVYLQMNSLKPEDTAVYYCNAVSGSFLKYSRYYWGQGTQVTVSS”, the “polyreactivity (PSR sort gate)” value was “high polyreactivity”.

Consider “QDQLVESGGGLVQAGGSLRLSCAASGITFRWYAMGWYRQAPGKERELVAAITSVDSTDYADSVKGRFTISRDNAKNTVYLQMNSLKPEDTAVYYCAARIGTGVLPGRGANSHMDYWGQGTQVTVSS”, for which the “polyreactivity (PSR sort gate)” value is given as “low polyreactivity”.

In the case of “QVQLVESGGGLVQAGGSLRLSCAASGRTFDTNAMGWYRQAPGKERELVAVITARGGNTSYADSVKGRFTISRENAKNTVSLQMNSLKPEDTAVYYCAARVYRAPWTYEEGNYWGQGTQVTVSS”, the “polyreactivity (PSR sort gate)” value is on record as “low polyreactivity”.

Take “QVQLVESGGGLVQAGGSLRLSCAASGRIFASNAMGWYRQAPGKERELVAAIDQGGGSSYYADSVKGRFTISRDNAKNTVYLLMNSLKPEDTAVYYCAADYITAYPRLYNYWGQGTQVTVSS”: the “polyreactivity (PSR sort gate)” value is “low polyreactivity”.

Take “QVQLVESGGGLVQAGGSLRLSCAASGFTISANTMGCYSQAPGKERELGATISGGSSTNYADSVKGRFTISRDNAKNTVYLQMNSLKPDDTAVYYCAKDGGLRKFDYWGQGTQVTVSS”: the “polyreactivity (PSR sort gate)” value was “high polyreactivity”.

As for “QVQLVESGGGLVQAGDSLRLSCAASGSIFAWKTKGWYRQAPGTERELVAAISSGDSTYYADSVKGRFTISRDNAKNPVYLQMNSLKPEDTAVYYCAATYYQDRRRGYWGQGTQVTVSS”, the “polyreactivity (PSR sort gate)” value is “high polyreactivity”.

Regarding “QVQLVESGGGLVQAGGSLRLSCAASGLTFGGNAMGWYRQAPGKERELVAAISWSDDTTDYADSVKGRFTISRDNAKNTVYVQMNSLKPEDTAVYYCAARLPFEHVDYWGQGTQVTVTS”, the “polyreactivity (PSR sort gate)” value is reported as “low polyreactivity”.

Turning to “QVQLVESGGGLVQAGGSLRLSCAASGFTFSSYAMGWYRQAPGKERELVAAITQSGGRTYYADSVKGRFTISRDNAKNTVYLQMNSLKPEDTAVYYCAADVPLWYDYGGQGTQVTVSS”, the “polyreactivity (PSR sort gate)” value is “low polyreactivity”.

Consider “QVQLVESGGGLVQAGGSLRLSCAASGRIFYGYAMGWYRQAPGKDRELVATISRSGARTHYADSVKGRFTISRDNAKNTVYLQMNSLKQEDTAVYYCAADVYLSRYEKYGYWGQGTQVTVSS”, for which the “polyreactivity (PSR sort gate)” value is “high polyreactivity”.

Take “QVQLVESGGGLVQAGGSLRLSCAASGSIFASNAMGWYRQEPGKEREFVAAITWRTDRTYYADSVKGRFTISRDNEKNTVYLQMNSLKPEDTAGYYCAADTWFYRFYYWGQGTQVTVSS”: the “polyreactivity (PSR sort gate)” value is “high polyreactivity”.

As to “QGQLVESGGGLVQAGGSLRLSCAASGSIFPDYAMGWYRQAPGKERELVAAITWRDDSTYYADSVKGRFTISRDNAKNTVYLQMNSLKPEDTAVYYCIASALDPLYAKDDYWGQGTQVTVSS”, the “polyreactivity (PSR sort gate)” value is “low polyreactivity”.

For the sequence “QVQLVESGGGLVQAGGSLRLSCAASGSIFRRFAMGWYRQAPGKEREFVAAISRSSDNTSYADSVKGRFTISRDNAKNTVYLQMNSLKPEDTAVYYCNADASWYGYWYYYWGQGTQVTVSS”, the “polyreactivity (PSR sort gate)” value is given as “low polyreactivity”.

Take “QVQLVESGGGLVQAGGSLRLSCAASGGTFTIYAMGWYRQAPGKERELVATINRGDRTNYADSVKGRFTISRDNAKNTVYLQMNSLKPEDTAVYYCAADFYYWYRGVYFVTRNYYWGQGTQVTVSS”: the “polyreactivity (PSR sort gate)” value was “high polyreactivity”.

For “QVQLVESGGGLVQAGGSLRLSCAASGFTLADNPMGWYRQAPGKERELVAAITSGASTYYADSVKGRFTISRDNAKNTVYLQMNTLKPEDTAVYYCAALYYWRSGYDAWGQGTQVTVSS”, the “polyreactivity (PSR sort gate)” value is on record as “low polyreactivity”.

Take “QVQLVESGGGLVQAGGILRLSCAASGRTLDCNAMGWYRQAPGKERELDAAITVTGSSTYYADSVKGRFTISRDNAKNTVYLQMNSLKPEDTAVYYCAKASGGDVRYSYSYRMDYWGQGTQVTVSS”: the “polyreactivity (PSR sort gate)” value was “low polyreactivity”.

For “QVQLVESGRGLVQAGGSLRLSCAASGGTFYIYAMGWYRQAPGKERELVAVISISDASTYYADSVKGRFTFSRDNAKNTVYLQMNSLKPEDTAVYYCNAKSNPAGSYPSEHSGYDSWGQGTQVTVSS”, the “polyreactivity (PSR sort gate)” value is given as “low polyreactivity”.

With “QVQVVESGGGLVQAGGSLRLSCAASGSTFSSYVMGWYRQATGKERELVAAISSIGGSTYYADSVKGRFTISRDNAKITVYLQMNSLKPEDTAVYYCAAEPPGSTYEGGYWGQGTQVTVSS”, the “polyreactivity (PSR sort gate)” value was “low polyreactivity”.

Regarding “QVQLVESGGGLVQAGGSLRLSCAASGTTFDSNGRGWYREAPGKERELVAAIRSGDSTYYADSVKGRCTISRDNAKNTVYLQMISLKPEDTAVYYCNKDEATFLSKDDYWGQGTQVTVSS”, the “polyreactivity (PSR sort gate)” value is “low polyreactivity”.

For the sequence “QVQLVESGGGLVQAGGSLRLSCAASGSTFAINAMGWYRQAPGKERELVAAISSSGSTNYADSVKGRFTISRDNAKNTVYLQMNSLKPEVTAVYYCAADRVWGTPQAYVPSQFDYWGQGTQVTVSS”, the “polyreactivity (PSR sort gate)” value is on record as “low polyreactivity”.

For the sequence “QVQLVESGGCLVQAGGSLRLSCAGSGSIFDGYAMGWYRQAPGKERELVADINNGADTYYADSVKGRFTISRDKAKNTVYLQMNTLKTEDTAVYYCAARYGTDTDIQNVARYDYWGQGTQVTVSS”, the “polyreactivity (PSR sort gate)” value was “low polyreactivity”.

Consider “QVQLVESGGGLVQAGGSLRLSCAASGYIYSVNAMGWYRQAPGKERELVAAIRGSGGSTFYADSVKGRFTISRDNAKNTVYLQMNSLKPEDTAVSYCAASFLGSFTDWVYSVYEYGSWGQGTQVTVSS”, for which the “polyreactivity (PSR sort gate)” value is recorded as “low polyreactivity”.

On to “QVQLVESGGGLVLAGGSLRLSSAASGSIFYRNAMGWYRQSPGKERQLVATITVNGGRTYYADSVKGRFTISRDIAKNTVYLQMNSLKPEDTAVYYCAKDVHRWYPYDYCGQGTQVTVSS”, for which the “polyreactivity (PSR sort gate)” value is “low polyreactivity”.

For the origin of these results see the nanobody polyreactivity screen of Harvey et al. (2022).
